Results as given in patent publication EP4818204A1 (Nanjing Leads Biolabs Co., Ltd., dated 2026).

Legend:
human GDF2 protein [1] = target: T1, human GDF2 protein (human, UniProt Q9UK05 320-429); experiment: ELISA, coated protein
T1 construct: Bought
T1 sequence (looked up): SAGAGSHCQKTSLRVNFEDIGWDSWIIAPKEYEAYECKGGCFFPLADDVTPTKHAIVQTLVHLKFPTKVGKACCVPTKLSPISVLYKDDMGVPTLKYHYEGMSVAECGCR

human BMP4 protein [2] = target: T2, human BMP4 protein (human, UniProt P12644 293-408); experiment: ELISA, coated protein
T2 construct: Bought
T2 sequence (looked up): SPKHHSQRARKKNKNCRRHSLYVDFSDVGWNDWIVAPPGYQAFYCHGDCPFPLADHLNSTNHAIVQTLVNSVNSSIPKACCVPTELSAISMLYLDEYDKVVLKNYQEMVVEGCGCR

human TGFβ1 protein [3] = target: T3, human TGFβ1 protein (human, UniProt P01137 279-390); experiment: ELISA, coated protein
T3 construct: Bought
T3 sequence (P01137 279-390 limits assumed): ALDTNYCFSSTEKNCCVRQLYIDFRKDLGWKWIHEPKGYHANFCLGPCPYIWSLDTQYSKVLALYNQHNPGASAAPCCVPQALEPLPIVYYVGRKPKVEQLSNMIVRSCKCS

human Activin A protein [4] = target: T4, human Activin A protein (human, UniProt P08476 311-426); experiment: ELISA, coated protein
T4 construct: Bought; Activin A is by nature a dimer of inhibin beta A chains
T4 sequence (looked up): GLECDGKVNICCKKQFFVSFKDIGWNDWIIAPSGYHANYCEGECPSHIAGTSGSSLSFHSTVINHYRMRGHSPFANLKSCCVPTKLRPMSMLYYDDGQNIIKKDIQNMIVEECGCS

human GDF1 protein [5] = target: T5, human GDF1 protein (human, UniProt P27539 254-372, limits assumed); experiment: ELISA, coated protein
T5 construct: Bought
T5 sequence (looked up): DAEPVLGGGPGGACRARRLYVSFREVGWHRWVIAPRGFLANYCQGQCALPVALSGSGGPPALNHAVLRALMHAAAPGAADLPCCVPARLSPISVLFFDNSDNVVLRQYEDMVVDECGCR

human GDF11 protein [6] = target: T6, human GDF11 protein (human, UniProt O95390 299-407); experiment: ELISA, coated protein
T6 construct: Bought
T6 sequence (looked up): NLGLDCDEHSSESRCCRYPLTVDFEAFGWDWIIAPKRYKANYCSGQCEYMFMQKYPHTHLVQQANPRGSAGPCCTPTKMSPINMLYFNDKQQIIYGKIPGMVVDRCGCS

human Activin B protein [7] = target: T7, human Activin B protein (human, UniProt P09529 293-407); experiment: ELISA, coated protein
T7 construct: Bought; Activin B is by nature a dimer of inhibin beta B chains
T7 sequence (looked up): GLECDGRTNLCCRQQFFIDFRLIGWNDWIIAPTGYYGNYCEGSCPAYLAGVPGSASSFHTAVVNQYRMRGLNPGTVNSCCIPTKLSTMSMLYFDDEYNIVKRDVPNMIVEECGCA

human GFRα1 protein [8] = target: T8, human GFRα1 protein (human, UniProt P56159 25-429, limits assumed); experiment: ELISA, coated protein
T8 construct: Bought
T8 sequence (looked up): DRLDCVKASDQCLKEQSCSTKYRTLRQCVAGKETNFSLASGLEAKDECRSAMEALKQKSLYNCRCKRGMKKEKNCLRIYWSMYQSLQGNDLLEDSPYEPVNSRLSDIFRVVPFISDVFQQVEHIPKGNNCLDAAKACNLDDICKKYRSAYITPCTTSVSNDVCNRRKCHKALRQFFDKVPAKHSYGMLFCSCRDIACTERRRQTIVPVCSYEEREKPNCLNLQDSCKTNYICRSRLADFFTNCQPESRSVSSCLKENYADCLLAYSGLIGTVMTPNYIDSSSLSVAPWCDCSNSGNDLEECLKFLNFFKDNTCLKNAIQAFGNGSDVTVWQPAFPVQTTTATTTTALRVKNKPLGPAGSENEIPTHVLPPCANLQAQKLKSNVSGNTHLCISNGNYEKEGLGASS

human BMP2 protein [9] = target: T9, human BMP2 protein (human, UniProt P12643 283-396); experiment: ELISA, coated protein
T9 construct: Bought
T9 sequence (P12643 283-396 limits assumed): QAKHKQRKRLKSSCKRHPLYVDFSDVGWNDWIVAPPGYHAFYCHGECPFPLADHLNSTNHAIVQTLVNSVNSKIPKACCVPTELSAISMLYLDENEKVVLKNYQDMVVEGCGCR

human GDF3 protein [10] = target: T10, human GDF3 protein (human, UniProt Q9NR23 251-364, limits assumed); experiment: ELISA, coated protein
T10 construct: Bought
T10 sequence (looked up): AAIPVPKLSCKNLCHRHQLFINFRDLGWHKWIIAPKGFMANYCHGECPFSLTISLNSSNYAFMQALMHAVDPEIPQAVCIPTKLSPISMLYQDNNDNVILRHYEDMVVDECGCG

[11] = target: human AMH protein (human) (UniProt P03971); experiment: ELISA, coated protein, antibody at 4 µg/mL
[12] = target: human GDF8 protein (human) (UniProt O14793); experiment: ELISA, coated protein, antibody at 4 µg/mL
human GDF2 protein [13] = target: T1, human GDF2 protein; experiment: ELISA, coated protein, antibody at 4 µg/mL
human BMP4 protein [14] = target: T2, human BMP4 protein; experiment: ELISA, coated protein, antibody at 4 µg/mL
human TGFβ1 protein [15] = target: T3, human TGFβ1 protein; experiment: ELISA, coated protein, antibody at 4 µg/mL
human Activin A protein [16] = target: T4, human Activin A protein; experiment: ELISA, coated protein, antibody at 4 µg/mL
Human GDF15 protein = target: T11, Human GDF15 protein (human, UniProt Q99988 197-308); experiment: ELISA, coated protein, antibody at 4 µg/mL
T11 construct: Natural GDF15 is said to be a disulfide-linked homodimer; also called Human-GDF15-his
T11 sequence: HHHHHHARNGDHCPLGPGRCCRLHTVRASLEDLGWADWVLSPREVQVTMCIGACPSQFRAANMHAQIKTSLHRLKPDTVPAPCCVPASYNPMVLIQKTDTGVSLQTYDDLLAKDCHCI

human GDF1 protein [17] = target: T5, human GDF1 protein; experiment: ELISA, coated protein, antibody at 4 µg/mL
human GDF11 protein [18] = target: T6, human GDF11 protein; experiment: ELISA, coated protein, antibody at 4 µg/mL
human Activin B protein [19] = target: T7, human Activin B protein; experiment: ELISA, coated protein, antibody at 4 µg/mL
human GFRα1 protein [20] = target: T8, human GFRα1 protein; experiment: ELISA, coated protein, antibody at 4 µg/mL
human BMP2 protein [21] = target: T9, human BMP2 protein; experiment: ELISA, coated protein, antibody at 4 µg/mL
human GDF3 protein [22] = target: T10, human GDF3 protein; experiment: ELISA, coated protein, antibody at 4 µg/mL

B1: Hu19C4C7 (antibody, human IgG1, kappa)
heavy: QVQLVQSGAEVKKPGSSVKVSCKASGYSFTGYIMNWVRQAPGQSLEWMGDIDPYYGGPNYNQKFQGRVTITVDKSTSTAYMELSSLRSEDTAVYYCSRRDYNYGSFAYWGQGTLVTVSSASTKGPSVFPLAPSSKSTSGGTAALGCLVKDYFPEPVTVSWNSGALTSGVHTFPAVLQSSGLYSLSSVVTVPSSSLGTQTYICNVNHKPSNTKVDKKVEPKSCDKTHTCPPCPAPEAAGAPSVFLFPPKPKDTLMISRTPEVTCVVVDVSHEDPEVKFNWYVDGVEVHNAKTKPREEQYNSTYRVVSVLTVLHQDWLNGKEYKCKVSNKALPAPIEKTISKAKGQPREPQVYTLPPSREEMTKNQVSLTCLVKGFYPSDIAVEWESNGQPENNYKTTPPVLDSDGSFFLYSKLTVDKSRWQQGNVFSCSVMHEALHNHYTQKSLSLSPGK
light: QIVLTQSPATLSLSPGERATLSCRASSSVNYMHWYQQKPGQAPRPLIYATSNLATGIPARFSGSGSGTDYTLTISSLEPEDFAVYYCQQWSDNPPTFGQGTKLEIKRTVAAPSVFIFPPSDEQLKSGTASVVCLLNNFYPREAKVQWKVDNALQSGNSQESVTEQDSKDSTYSLSSTLTLSKADYEKHKVYACEVTHQGLSSPVTKSFNRGEC
notes: Humanized form of murine 19C4C7; human IgG1 constant region with L234A, L235A, G237A and kappa light chain constant region; also called hu19C4C7-IgG1-mut(L234A,L235A,G237A)
Does B1 bind (human GDF2 protein [1])?
Result: no binding (tested: 4 µg/mL)

Does B1 bind (human BMP4 protein [2])?
Result: no binding (tested: 4 µg/mL)

Does B1 bind (human TGFβ1 protein [3])?
Result: no binding (tested: 4 µg/mL)

Does B1 bind (human Activin A protein [4])?
Result: no binding (tested: 4 µg/mL)

Does B1 bind (human GDF1 protein [5])?
Result: no binding (tested: 4 µg/mL)

Does B1 bind (human GDF11 protein [6])?
Result: no binding (tested: 4 µg/mL)

Does B1 bind (human Activin B protein [7])?
Result: no binding (tested: 4 µg/mL)

Does B1 bind (human GFRα1 protein [8])?
Result: no binding (tested: 4 µg/mL)

Does B1 bind (human BMP2 protein [9])?
Result: no binding (tested: 4 µg/mL)

Does B1 bind (human GDF3 protein [10])?
Result: no binding (tested: 4 µg/mL)

And the OD value (OD 450 nm-620 nm) [11]?
The OD value (OD 450 nm-620 nm) was 0.0464.

What about the OD value (OD 450 nm-620 nm) [12] of the same binder?
The OD value (OD 450 nm-620 nm) was 0.0423.

And the OD value (human GDF2 protein [13])?
Its OD value is 0.0678 OD 450 nm-620 nm.

And the OD value (human BMP4 protein [14])?
Its OD value is 0.0432 OD 450 nm-620 nm.

And the OD value (human TGFβ1 protein [15])?
The OD value was 0.0437 OD 450 nm-620 nm.

And the OD value (human Activin A protein [16])?
Its OD value is 0.0577 OD 450 nm-620 nm.

What about the OD value (Human GDF15 protein) of the same binder?
Its OD value is 3.27 OD 450 nm-620 nm.

And the OD value (human GDF1 protein [17])?
The OD value was 0.0433 OD 450 nm-620 nm.

And the OD value (human GDF11 protein [18])?
The OD value was 0.0368 OD 450 nm-620 nm.

And the OD value (human Activin B protein [19])?
Its OD value is 0.136 OD 450 nm-620 nm.

What about the OD value (human GFRα1 protein [20]) of the same binder?
Its OD value is 0.0468 OD 450 nm-620 nm.

What about the OD value (human BMP2 protein [21]) of the same binder?
Its OD value is 0.0457 OD 450 nm-620 nm.

And the OD value (human GDF3 protein [22])?
The OD value was 0.0418 OD 450 nm-620 nm.
